According to US20060233788A1 (published 2006):
Changes are numbered by the printed parent chain. No end group written: not given here. *: point of attachment. Octanoyl = CCCCCCCC(=O)*

T1: peptide spanning amino acids 14-28 of human ghrelin (human)
T1 peptide: QRKESKKPPAKLQPR

T2: human ghrelin peptide 4-16 (human)
T2 peptide: FLSPEHQRVQQRK

T3: human ghrelin peptide 4-28 (human)
T3 peptide: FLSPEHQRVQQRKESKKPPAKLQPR

T4: human ghrelin peptide spanning amino acids 4-20 (human)
T4 peptide: FLSPEHQRVQQRKESKK

T5: human ghrelin peptide 18-28 (human)
T5 peptide: SKKPPAKLQPR

T6: human ghrelin peptide 13-19 (human)
T6 peptide: QQRKESK

T7: human ghrelin peptide 7-16 (human)
T7 peptide: PEHQRVQQRK

B1: Ghrelin (1-8 acyl) (peptide)
peptide: GSS(Octanoyl)FLSPE
notes: also called hGhrelin (1-8 acyl); Human 1-8 acyl
B2: full-length human ghrelin (1-28) acylated with an octanoyl group on the serine at position 3 (peptide)
peptide: GSSFLSPEHQRVQQRKESKKPPAKLQPX
modifications: octanoyl group on the serine at position 3
notes: the 1-28 form has Arg at 28; also called hGhrelin; acylated hGhrelin
B3: Ghrelin (9-28) (peptide)
peptide: HQRVQQRKESKKPPAKLQPR
notes: also called hGhrelin (9-28)
B4: full-length, acylated rat ghrelin (peptide, UniProt Q9QYH7 24-51, looked up)
peptide: GSSFLSPEHQKAQQRKESKKPPAKLQPR
modifications: also: acylated (position and acyl group not given here)
notes: mature; The UniProt entry is the precursor; the assay used the ghrelin peptide; also called rGhrelin
B5: Fab 4641 (Fab, V domains shown)
VH: QVQLQQSRPELVRPGASVKMSCRASAYTFTTYWMHWVRQRPGQGLEWIGMIDPSNSDTWLNQKFKDKATLNVDRSSNTAYMQLTSLTSEDSAVYYCARTGFDYWGQGTTLTVSS
VL: DVVMTQTPLSLPVSLGDQASISCRSSQSLVHSDGNTYLHWYLQKPGQSPKLLIYKVSNRFSGVPDRFSGSGSGTDFTLKISRVEAEDLGVYFCSQSTYVSYTFGGGTKLEIKR
notes: Mouse Fab
B6: Fab 1451 (Fab, V domains shown)
VH: B5 VH with Q3H, L4V, Q5K, R8G, R23K, R38K, S54Y, D57E, Q82K, T84S
VL: B5 VL with M4L, D33N, Y98H, S100P
notes: Mouse Fab
B7: Ghrelin (1-8, desacyl) (peptide)
peptide: GSSFLSPE
notes: also called hGhrelin (1-8 desacyl)
B8: Human 1-13 acyl (peptide)
peptide: GSSFLSPEHQRVQ
modifications: also: acyl (position and group not restated)
notes: also called human ghrelin 1-13 acyl; active human ghrelin analog
B9: Fab 1181 (Fab, V domains shown)
VH: QVQLQQSGAELVRSGASVKLSCTASGFNIKDYFMQWVKQRPEQGLEWIGWIDPENGETGYAPKFQGKATMTADTASNTAYLQLSSLTSEDTALYYCNAPSVVAKYFDVWGAGTTVTVSS
VL: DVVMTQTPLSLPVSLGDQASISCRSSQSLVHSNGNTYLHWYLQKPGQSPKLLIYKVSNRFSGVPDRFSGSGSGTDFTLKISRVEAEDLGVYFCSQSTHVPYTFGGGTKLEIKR
notes: Mouse Fab from an Omniclonal library (Biosite); kappa light chain (detected and captured with goat anti-mouse kappa); the HCVR amino acid entry is 12
B10: Fab 1621 (Fab, V domains shown)
VH: B9 VH with M34V, Y95F
VL: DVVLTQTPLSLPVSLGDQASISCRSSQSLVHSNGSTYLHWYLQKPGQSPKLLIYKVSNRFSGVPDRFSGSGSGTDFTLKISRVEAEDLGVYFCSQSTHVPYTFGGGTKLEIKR
notes: Mouse Fab, kappa light chain

Experiments:
Fab 1181 [1] = target: B9; test: competitive ELISA, Fab 1181 on coated BSA-hGhrelin; compound 5 ug/ml
Method: (§1) The plate was incubated at 4° C. overnight. The wells are aspirated and washed twice with washing buffer (20 mM Tris-Cl, pH 7.4, 0.15 M NaCl, 0.1% Tween 20). Compounds (i.e., human ghrelin or ghrelin analogs) are diluted into antibody solution. […] The compound concentration is varied as listed in Tables 2-5 below, but the Fab concentration is kept constant at 0.1 μg/ml in blocking solution (10 mg/ml BSA in wash buffer). […] The plates are incubated for 1 hour at room temperature. The wells are then washed three times with washing buffer.
(§2) Peroxidase-conjugated secondary antibody (50 μl goat anti-mouse kappa HRP (Southern Biotech), diluted 1:2000 in blocking buffer) is added to each well and incubated for 1 hour at room temperature. The wells are then washed 4 times with washing buffer. Fifty microliters of chromogenic substrate (i.e., OPD substrate) is added to each well and allowed to develop at room temperature for 10 minutes. The reaction is stopped by adding 100 μl 1N HCl to each well. The absorbance of the wells is read at 490 nm.
(§3) The average absorbance from triplicate wells is determined.
Target sequence in this assay (VL, as listed by the source, chain 2 of 2, one chain of several): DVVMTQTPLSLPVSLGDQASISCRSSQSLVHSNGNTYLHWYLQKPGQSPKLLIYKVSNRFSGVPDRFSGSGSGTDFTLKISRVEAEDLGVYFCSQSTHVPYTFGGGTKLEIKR

Fab 1181 [2] = target: B9; test: competitive ELISA, Fab 1181 on coated BSA-hGhrelin; compound 0.2 ug/ml
Method: as §1, §2, §3
Target sequence in this assay (VL, as listed by the source, chain 2 of 2, one chain of several): as above

Fab 1621 [3] = target: B10; test: competitive ELISA, Fab 1621 on coated BSA-hGhrelin; compound 5 ug/ml
Method: as §1, §2, §3
Target sequence in this assay (VH, as listed by the source limits assumed, chain 1 of 2): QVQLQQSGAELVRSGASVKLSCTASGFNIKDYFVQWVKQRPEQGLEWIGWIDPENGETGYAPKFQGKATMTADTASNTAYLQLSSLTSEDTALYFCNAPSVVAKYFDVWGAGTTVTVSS
Target sequence in this assay (VL, as listed by the source limits assumed, chain 2 of 2): as the sequence (VL, as listed by the source, chain 2 of 2, one chain of several) above, with M4L, N35S counted along it

Fab 1621 [4] = target: B10; test: competitive ELISA, Fab 1621 on coated BSA-hGhrelin; compound 0 (baseline, no compound)
Method: as §1, §2, §3
Target sequence in this assay (VL, as listed by the source limits assumed): as the sequence (VL, as listed by the source, chain 2 of 2, one chain of several) above, with M4L, N35S counted along it

Fab 1181 [5] = target: B9; test: competitive ELISA, Fab 1181 on coated BSA-hGhrelin; compound 0 (baseline, no compound)
Method: as §1, §2, §3

Fab 1621 [6] = target: B10; test: competitive ELISA, Fab 1621 on coated BSA-hGhrelin; compound 0.2 ug/ml
Method: as §1, §2, §3
Target sequence in this assay (VH, as listed by the source limits assumed, chain 1 of 2): as the sequence (VH, as listed by the source limits assumed, chain 1 of 2) above
Target sequence in this assay (VL, as listed by the source limits assumed, chain 2 of 2): as the sequence (VL, as listed by the source, chain 2 of 2, one chain of several) above, with M4L, N35S counted along it

Fab 1181 [7] = target: B9; test: competitive ELISA, Fab 1181 on coated BSA-hGhrelin; compound 1 ug/ml
Method: as §1, §2, §3
Target sequence in this assay (VL, as listed by the source, chain 2 of 2, one chain of several): as the sequence (VL, as listed by the source, chain 2 of 2, one chain of several) above

Fab 1621 [8] = target: B10; test: competitive ELISA, Fab 1621 on coated BSA-hGhrelin; compound 1 ug/ml
Method: as §1, §2, §3
Target sequence in this assay (VH, as listed by the source limits assumed, chain 1 of 2): as the sequence (VH, as listed by the source limits assumed, chain 1 of 2) above
Target sequence in this assay (VL, as listed by the source limits assumed, chain 2 of 2): as the sequence (VL, as listed by the source, chain 2 of 2, one chain of several) above, with M4L, N35S counted along it

[9] = target: T8, GHS-R1a human ghrelin receptor (human, UniProt Q92847 1-366); test: FLIPR calcium assay, AV12 cells expressing human GHS-R1a
T8 construct: whole, on cells; also called GHS-1a receptor; growth hormone secretagogue receptor

[10] = target: T1, peptide spanning amino acids 14-28 of …; test: FLIPR assay, peptide competes with hGhrelin for the Fab (Fab 5 nM)
Method: (§4) The final concentration of the sample solution is 0.75% BSA, and calcium at approximately the same concentration as in the FLIPR buffer. Fifty microliters of the sample solution is added to the 50 μl FLIPR buffer in the well with the AV12 cells. […] The cell plate is shaken for 15 seconds prior to loading it into the FLIPR instrument. Test samples or control samples are added to each well, and read by a Fluorometric Imaging Plate Reader (Molecular Devices).

[11] = target: T1, peptide spanning amino acids 14-28 of …; test: FLIPR assay, peptide competes with hGhrelin for the Fab (Fab 20 nM)
Method: as §4

[12] = target: B2; test: SPR (BIAcore 2000), Fab captured on goat anti-mouse kappa, ghrelin in solution, 25 C
Method: (§5) The BIAcore® utilizes the optical properties of surface plasmon resonance to detect alterations in protein concentration of interacting molecules within a dextran biosensor matrix. Except where noted, all reagents and materials are purchased from BIAcore® AB (Upsala, Sweden). All measurements are performed at 25° C. Samples containing rat or human ghrelin (full length, acylated) are dissolved in HBS-EP buffer (150 mM sodium chloride, 3 mM EDTA, 0.005% (w/v) surfactant P-20, and 10 mM HEPES, pH 7.4). A capture antibody, goat anti-mouse Kappa (Southern Biotechnology, Inc), is immobilized onto flow cells using amine-coupling chemistry. Flow cells (1-4) are activated for 7 minutes with a 1:1 mixture of 0.1 M N-hydroxysuccinimide and 0.1 M 3-(N,N-dimethylamino)propyl-N-ethylcarbodiimide at a flow rate of 10 μl/min. Goat anti-mouse Kappa (30 μg/mL in 10 mM sodium acetate, pH 4.5) is manually injected over all 4 flow cells at a flow rate of 10 μL/min. The surface density is monitored and additional goat anti-mouse Kappa is injected if needed to individual cell until all flow cells reach a surface density of 4500-5000 response units (RU). Surfaces are blocked with a 7 minute injection of 1 M ethanolamine-HCl, pH 8.5(10 μl/min). To ensure complete removal of any noncovalently bound goat anti-mouse Kappa, 15 μL of 10 mM glycine, pH 1.5 is injected twice. Running buffer used for kinetic experiments contained 10 mM HEPES, pH 7.4, 150 mM NaCl, 0.005% P20.
(§6) Collection of kinetic binding data is performed at maximum flow rate (100 μL/min) and a low surface density to minimize mass transport effects.

[13] = target: T9, full-length human ghrelin not acylated (human); test: as above
T9 construct: also called hGhrelin (desacyl); des-acyl hGhrelin
Method: as §5, §6

[14] = target: B4; test: as above
Method: as §5, §6

[15] = target: T2, human ghrelin peptide 4-16; test: cell-based or functional assay
[16] = target: T3, human ghrelin peptide 4-28; test: cell-based or functional assay
[17] = target: T4, human ghrelin peptide spanning amino …; test: cell-based or functional assay
Ghrelin (1-8 acyl) = target: B1; test: competitive ELISA on coated BSA-hGhrelin
Method: as §1, §2

Ghrelin (1-8, desacyl) = target: B7; test: FLIPR assay, peptide competes with hGhrelin for the Fab (no reduction means the Fab does not bind the peptide)
[18] = target: B2; test: cell-based or functional assay
[19] = target: T5, human ghrelin peptide 18-28; test: FLIPR assay, peptide competes with hGhrelin for the Fab
[20] = target: T6, human ghrelin peptide 13-19; test: as above
Ghrelin (9-28) = target: B3; test: as above
[21] = target: T7, human ghrelin peptide 7-16; test: as above

T8 sequence (Q92847 whole entry): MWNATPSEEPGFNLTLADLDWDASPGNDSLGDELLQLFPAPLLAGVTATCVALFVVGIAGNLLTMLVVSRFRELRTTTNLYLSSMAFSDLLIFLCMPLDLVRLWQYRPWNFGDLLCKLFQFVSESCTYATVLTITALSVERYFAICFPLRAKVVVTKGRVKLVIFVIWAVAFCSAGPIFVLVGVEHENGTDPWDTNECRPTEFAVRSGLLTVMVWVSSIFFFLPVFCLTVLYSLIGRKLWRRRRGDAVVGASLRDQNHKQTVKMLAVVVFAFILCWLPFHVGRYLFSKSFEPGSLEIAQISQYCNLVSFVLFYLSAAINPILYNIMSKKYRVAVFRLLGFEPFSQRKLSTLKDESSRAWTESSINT

| Ave. OD (Fab 1181 [1]) [OD] | Ave. OD (Fab 1181 [2]) [OD] | Ave. OD (Fab 1621 [3]) [OD] | Ave. OD (Fab 1621 [4]) [OD] | Ave. OD (Fab 1181 [5]) [OD] | Ave. OD (Fab 1621 [6]) [OD] | Ave. OD (Fab 1181 [7]) [OD] | Ave. OD (Fab 1621 [8]) [OD] | Binder | other results |
| --- | --- | --- | --- | --- | --- | --- | --- | --- | --- |
| 1.21 | 1.26 | 1.22 | 1.17 | 1.23 | 1.36 | 1.22 | 1.32 | B1 | – |
| 0.0445 | 0.0784 | 0.043 | 1.17 | 1.23 | 0.131 | 0.0497 | 0.0495 | B2 | – |
| 1.11 | 1.13 | 1.02 | 1.17 | 1.23 | 1.04 | 1.17 | 1.05 | B3 | – |
| 0.178 | 1.12 | 0.429 | 1.17 | 1.23 | 0.999 | 0.883 | 0.932 | B4 | binding result [9]: binds |
| – | – | – | – | – | – | – | – | B5 | binding result [10]: no binding (tested: 100 nM peptide) |
| – | – | – | – | – | – | – | – | B6 | binding result [11]: no binding (tested: 100 nM peptide) |
| 1.18 | 1.22 | 1.26 | 1.17 | 1.23 | 1.38 | 1.19 | 1.33 | B7 | – |
| – | – | – | – | – | – | – | – | B8 | binding result [9]: binds |
| – | – | – | – | – | – | – | – | B9 | Kd [12]: 0.202 nM; kon [12]: 3.39e+06 M⁻¹ s⁻¹; Kd [13]: 0.434 nM; Kd [14]: 10.4 nM; reduction of Fab inhibition of hGhrelin (0.83 nM), FLIPR calcium assay; peptide 100 nM, Fab 0.95 nM [15]: 30%; reduction of Fab inhibition of hGhrelin (0.83 nM), FLIPR calcium assay; peptide 100 nM, Fab 0.95 nM [16]: 80%; reduction of Fab inhibition of hGhrelin (0.83 nM), FLIPR calcium assay; peptide 100 nM, Fab 0.95 nM [17]: 74%; binding result (Ghrelin (1-8 acyl)): no binding (tested: 5 µg/ml); binding result (Ghrelin (1-8, desacyl)): no binding (tested: 100 nM peptide); IC50 (nM), Inhibition of hGhrelin at 0.8 nM, FLIPR calcium assay [18]: 0.8 nM; binding result [19]: no binding (tested: 100 nM peptide); binding result [20]: no binding (tested: 100 nM peptide); binding result (Ghrelin (9-28)): no binding (tested: 100 nM peptide); binding result [21]: no binding (tested: 100 nM peptide) |
| – | – | – | – | – | – | – | – | B10 | Kd [12]: 0.68 nM; Kd [13]: 1.74 nM; Kd [14]: 5.7 nM; binding result (Ghrelin (1-8 acyl)): no binding (tested: 5 µg/ml); binding result (Ghrelin (1-8, desacyl)): no binding (tested: 100 nM peptide); IC50 (nM), Inhibition of hGhrelin at 0.8 nM, FLIPR calcium assay [18]: 1.64 nM; binding result [19]: no binding (tested: 100 nM peptide); binding result [20]: no binding (tested: 100 nM peptide); binding result (Ghrelin (9-28)): no binding (tested: 100 nM peptide); binding result [21]: no binding (tested: 100 nM peptide) |
